The values below come from US20130231277A1 (published 2013).

The test addresses T1, ectodomain of murine βKlotho (F53 to L995 of SEQ ID NO: 218) with a C-terminal FLAG tag (UniProt Q99N32 53-995).
T1 chain: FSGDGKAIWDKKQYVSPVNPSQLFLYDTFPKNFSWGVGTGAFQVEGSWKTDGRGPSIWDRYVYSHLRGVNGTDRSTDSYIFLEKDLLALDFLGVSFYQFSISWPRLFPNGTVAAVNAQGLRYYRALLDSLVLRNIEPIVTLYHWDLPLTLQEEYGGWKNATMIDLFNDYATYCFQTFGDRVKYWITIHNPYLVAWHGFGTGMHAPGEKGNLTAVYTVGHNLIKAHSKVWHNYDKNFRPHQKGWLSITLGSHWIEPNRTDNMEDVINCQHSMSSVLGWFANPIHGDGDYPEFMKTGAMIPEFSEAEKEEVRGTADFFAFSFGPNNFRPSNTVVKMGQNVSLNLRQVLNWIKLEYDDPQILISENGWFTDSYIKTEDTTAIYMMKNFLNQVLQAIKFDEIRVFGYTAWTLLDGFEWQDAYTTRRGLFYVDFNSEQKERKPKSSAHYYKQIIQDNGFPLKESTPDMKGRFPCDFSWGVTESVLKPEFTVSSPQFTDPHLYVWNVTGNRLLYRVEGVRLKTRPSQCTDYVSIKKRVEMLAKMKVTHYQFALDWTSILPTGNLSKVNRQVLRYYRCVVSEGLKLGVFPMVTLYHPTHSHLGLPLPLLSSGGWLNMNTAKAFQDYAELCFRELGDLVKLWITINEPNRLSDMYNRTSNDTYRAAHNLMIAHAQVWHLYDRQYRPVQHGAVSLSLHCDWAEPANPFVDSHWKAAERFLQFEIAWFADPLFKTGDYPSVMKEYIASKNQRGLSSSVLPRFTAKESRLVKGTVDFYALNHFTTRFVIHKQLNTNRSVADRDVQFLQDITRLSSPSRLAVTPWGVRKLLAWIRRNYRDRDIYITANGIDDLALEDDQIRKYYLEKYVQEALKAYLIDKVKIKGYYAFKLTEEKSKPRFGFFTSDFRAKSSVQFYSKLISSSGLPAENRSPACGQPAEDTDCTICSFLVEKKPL
The test can be described thus: SPR. A general note: SPR reads the build-up and loss of mass on a sensor chip optically.

B1: ligand-binding domain of human FGFR1c (D142 to R365 of SEQ ID NO: 221) (receptor)
chain: DNTKPNRMPVAPYWTSPEKMEKKLHAVPAAKTVKFKCPSSGTPNPTLRWLKNGKEFKPDHRIGGYKVRYATWSIIMDSVVPSDKGNYTCIVENEYGSINHTYQLDVVERSPHRPILQAGLPANKTVALGSNVEFMCKVYSDPQPHIQWLKHIEVNGSKIGPDNLPYVQILKTAGVNTTDKEMEVLHLRNVSFEDAGEYTCLAGNSIGLSHHSAWLTVLEALEER
What is called Kd is a measure of binding affinity in units of concentration. B1 showed a Kd of 124 nM.

B2: ligand-binding domain of human FGFR2c (N149 to E368 of SEQ ID NO: 226) (receptor)
chain: NNKRAPYWTNTEKMEKRLHAVPAANTVKFRCPAGGNPMPTMRWLKNGKEFKQEHRIGGYKVRNQHWSLIMESVVPSDKGNYTCVVENEYGSINHTYHLDVVERSPHRPILQAGLPANASTVVGGDVEFVCKVYSDAQPHIQWIKHVEKNGSKYGPDGLPYLKVLKAAGVNTTDKEIEVLYIRNVTFEDAGEYTCLAGNSIGISFHSAWLTVLPAPGREKE
For the molecule B2, the Kd came out at 170 nM.
